According to the supplement of paper PMC9112550, “Optimization of the antimicrobial peptide Bac7 by deep mutational scanning” (BMC Biology, 2022):

Test system: Escherichia coli TOP10
Experiment: shrunken log2 fold change of peptide-encoding DNA abundance (4.5 h post-induction vs induction); higher = less antimicrobial activity (less host growth inhibition)
Conditions: time post-induction: 4.5 h; library: site-saturation at positions 5, 18, 19, 20
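Further: peptides expressed intracellularly from a pBAD plasmid library in pooled LB shake-flask culture, induced with 0.3% L-arabinose, DNA abundance read by NGS, three biological replicates, DESeq2 with apeglm shrinkage.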

| Sequence | shrunken log2 fold change |
| --- | --- |
| RRIRPRPPRLPRPRPRPTIHPRP | -0.428 |
| RRIRARPPRLPRPRPRPVHAPRP | 0.768 |
| RRIRARPPRLPRPRPRPHPNPRP | 0.21 |
| RRIRHRPPRLPRPRPRPRNGPRP | -0.0288 |
| RRIRLRPPRLPRPRPRPHAYPRP | -0.392 |
| RRIRCRPPRLPRPRPRPLCHPRP | -0.213 |
| RRIRDRPPRLPRPRPRPAIWPRP | 0.24 |
| RRIRYRPPRLPRPRPRPRKTPRP | -0.00513 |
| RRIRVRPPRLPRPRPRPYVWPRP | -0.567 |
| RRIRFRPPRLPRPRPRPDQGPRP | -0.167 |
| RRIRNRPPRLPRPRPRPREKPRP | 0.377 |
| RRIRCRPPRLPRPRPRPKNIPRP | -0.607 |
| RRIRYRPPRLPRPRPRPHIEPRP | -1.47 |
| RRIRGRPPRLPRPRPRPELFPRP | 1.63 |
| RRIRWRPPRLPRPRPRPNPWPRP | 0.265 |
| RRIRKRPPRLPRPRPRPQQNPRP | 0.157 |
| RRIRYRPPRLPRPRPRPNVNPRP | -1.2 |
| RRIRKRPPRLPRPRPRPAIMPRP | 0.418 |
| RRIRLRPPRLPRPRPRPKTTPRP | 0.196 |
| RRIRQRPPRLPRPRPRPTQRPRP | 0.548 |
| RRIRDRPPRLPRPRPRPYWEPRP | -0.0419 |
| RRIRGRPPRLPRPRPRPWLNPRP | -0.00435 |
| RRIRGRPPRLPRPRPRPGPRPRP | 1.1 |
| RRIRFRPPRLPRPRPRPYTRPRP | -0.369 |
| RRIRRRPPRLPRPRPRPCEKPRP | -0.0914 |

| Sequence | shrunken log2 fold change |
| --- | --- |
| RRIRPRPPRLPRPRPRPIDRPRP | -0.00145 |
| RRIRQRPPRLPRPRPRPHLRPRP | -0.0964 |
| RRIRSRPPRLPRPRPRPITMPRP | -0.639 |
| RRIRERPPRLPRPRPRPSTIPRP | -0.551 |
| RRIRGRPPRLPRPRPRPVNDPRP | 0.368 |
| RRIRLRPPRLPRPRPRPVTIPRP | 0.0221 |
| RRIRYRPPRLPRPRPRPKEVPRP | 0.0274 |
| RRIRWRPPRLPRPRPRPNRQPRP | 0.175 |
| RRIRMRPPRLPRPRPRPSRWPRP | 1 |
| RRIRNRPPRLPRPRPRPGVAPRP | 0.135 |
| RRIRARPPRLPRPRPRPRERPRP | 0.334 |
| RRIRMRPPRLPRPRPRPPAEPRP | 3.68 |
| RRIRIRPPRLPRPRPRPILAPRP | -0.286 |
| RRIRPRPPRLPRPRPRPDKVPRP | -0.249 |
| RRIRWRPPRLPRPRPRPLFYPRP | -0.427 |
| RRIRKRPPRLPRPRPRPTEFPRP | 0.00591 |
| RRIRNRPPRLPRPRPRPHDPPRP | -0.202 |
| RRIRDRPPRLPRPRPRPQSKPRP | -0.0457 |
| RRIRIRPPRLPRPRPRPTRKPRP | -0.101 |
| RRIRFRPPRLPRPRPRPDVRPRP | 0.0165 |
| RRIRRRPPRLPRPRPRPTCTPRP | 0.165 |
| RRIRFRPPRLPRPRPRPYNDPRP | -0.641 |
| RRIRKRPPRLPRPRPRPRGVPRP | 0.782 |
| RRIRSRPPRLPRPRPRPSKVPRP | -0.575 |
| RRIRRRPPRLPRPRPRPQIGPRP | 0.164 |

| Sequence | shrunken log2 fold change |
| --- | --- |
| RRIRFRPPRLPRPRPRPVQEPRP | 0.0623 |
| RRIRIRPPRLPRPRPRPASSPRP | 0.093 |
| RRIRRRPPRLPRPRPRPFDVPRP | -0.0126 |
| RRIRERPPRLPRPRPRPQWAPRP | -0.0475 |
| RRIRGRPPRLPRPRPRPQSMPRP | 0.276 |
| RRIRSRPPRLPRPRPRPRKTPRP | 0.0973 |
| RRIRTRPPRLPRPRPRPFDDPRP | 0.0564 |
| RRIRNRPPRLPRPRPRPYGWPRP | -0.012 |
| RRIRHRPPRLPRPRPRPEQWPRP | 0.0101 |
| RRIRLRPPRLPRPRPRPFEDPRP | -0.193 |
| RRIRLRPPRLPRPRPRPTNLPRP | -0.27 |
| RRIRHRPPRLPRPRPRPSIMPRP | -0.423 |
| RRIRNRPPRLPRPRPRPPWNPRP | 0.0711 |
| RRIRPRPPRLPRPRPRPVPCPRP | 0.0816 |
| RRIRQRPPRLPRPRPRPCDEPRP | 0.0697 |
| RRIRRRPPRLPRPRPRPVEWPRP | -0.182 |
| RRIRRRPPRLPRPRPRPSTNPRP | -0.0966 |
| RRIRERPPRLPRPRPRPYDAPRP | 0.835 |
| RRIRNRPPRLPRPRPRPDRQPRP | -0.0285 |
| RRIRARPPRLPRPRPRPNRPPRP | -0.111 |
| RRIRNRPPRLPRPRPRPKCWPRP | 0.173 |
| RRIRYRPPRLPRPRPRPSKAPRP | -0.223 |
| RRIRQRPPRLPRPRPRPRKQPRP | 0.505 |
| RRIRMRPPRLPRPRPRPQPPPRP | 1.18 |
| RRIRWRPPRLPRPRPRPGVTPRP | 0.586 |
